Laboratory results reported in patent US20250326842A1 (BEIGENE SWITZERLAND, published 2025).
Where two headings read alike, the source gives them in different places.

T1: human PVRIG recombinant protein (human, UniProt Q6DKI7 41-171)
T1 construct: also called human PVRIG protein; recombinant human antigen PVRIG
T1 sequence: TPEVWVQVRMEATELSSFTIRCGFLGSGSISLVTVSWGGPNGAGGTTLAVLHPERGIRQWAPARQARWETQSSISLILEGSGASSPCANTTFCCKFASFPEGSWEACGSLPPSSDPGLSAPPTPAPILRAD

T2: hPVRIG-ECD-his (human, UniProt Q6DKI7 41-171)
T2 construct: Acrobiosystems PVG-H52H4; also called hPVRIG-His; human PVRIG-His; not shown: His tag
T2 sequence: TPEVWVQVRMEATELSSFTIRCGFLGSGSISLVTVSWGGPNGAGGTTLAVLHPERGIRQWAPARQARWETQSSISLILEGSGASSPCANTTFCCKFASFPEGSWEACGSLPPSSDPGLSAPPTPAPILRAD

T3: Cyno PVRIG expressed on HEK293 cells (cynomolgus monkey)
T3 construct: also called native Cyno PVRIG
T3 chain: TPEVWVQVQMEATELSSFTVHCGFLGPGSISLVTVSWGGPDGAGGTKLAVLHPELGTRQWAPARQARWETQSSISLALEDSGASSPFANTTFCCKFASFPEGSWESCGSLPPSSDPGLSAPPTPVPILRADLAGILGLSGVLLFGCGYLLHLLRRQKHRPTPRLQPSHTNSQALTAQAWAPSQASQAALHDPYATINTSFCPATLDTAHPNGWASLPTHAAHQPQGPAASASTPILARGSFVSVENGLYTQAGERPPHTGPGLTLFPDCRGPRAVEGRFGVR

T4: human PVRIG expressed on cells (human, UniProt Q6DKI7 41-326)
T4 construct: Jurkat cells engineered to express human PVRIG; also called hPVRIG-Jurkat; native human PVRIG
T4 sequence: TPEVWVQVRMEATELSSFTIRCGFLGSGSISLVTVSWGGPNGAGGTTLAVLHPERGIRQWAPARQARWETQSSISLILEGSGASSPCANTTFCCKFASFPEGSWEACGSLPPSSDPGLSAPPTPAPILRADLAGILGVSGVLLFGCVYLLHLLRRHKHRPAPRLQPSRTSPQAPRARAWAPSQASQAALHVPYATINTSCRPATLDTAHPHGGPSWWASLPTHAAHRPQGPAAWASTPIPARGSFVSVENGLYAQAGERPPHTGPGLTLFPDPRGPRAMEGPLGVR

T5: human PVRL2 overexpressed on Farage cells (human, UniProt Q92692 32-538)
T5 construct: also called Farage-hPVRL2 cells; surface PVRL2
T5 sequence: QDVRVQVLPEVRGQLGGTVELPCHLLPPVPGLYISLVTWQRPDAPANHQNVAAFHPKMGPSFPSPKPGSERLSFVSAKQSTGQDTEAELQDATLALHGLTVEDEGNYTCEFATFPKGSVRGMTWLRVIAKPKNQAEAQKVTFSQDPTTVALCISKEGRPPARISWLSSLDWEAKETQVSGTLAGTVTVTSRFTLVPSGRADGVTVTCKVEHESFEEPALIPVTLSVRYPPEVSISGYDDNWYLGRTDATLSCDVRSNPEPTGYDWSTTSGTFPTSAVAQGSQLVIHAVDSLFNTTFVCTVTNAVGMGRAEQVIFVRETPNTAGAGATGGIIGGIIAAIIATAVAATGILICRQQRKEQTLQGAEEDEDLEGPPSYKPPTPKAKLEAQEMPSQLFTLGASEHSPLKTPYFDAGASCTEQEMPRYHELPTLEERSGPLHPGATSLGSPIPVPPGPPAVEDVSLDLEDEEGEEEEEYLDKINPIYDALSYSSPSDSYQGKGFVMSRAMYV


What was measured:
[1] = biological target: T1, human PVRIG recombinant protein; experiment: SPR, antibody captured via anti-human Fc, human PVRIG analyte
Excerpt: For affinity determination, antibodies were captured by anti-human Fc antibodies, and used in the affinity determination based on surface plasmon resonance (SPR) technology.

[2] = biological target: T2, hPVRIG-ECD-his; experiment: blocking ELISA: hPVRIG-His coated, antibody mixed with PVRL2-biotin at 1 ug/mL; % inhibition of PVRL2 binding
[3] = biological target: T3, Cyno PVRIG expressed on HEK293 cells; experiment: flow cytometry on 293T cells expressing cyno PVRIG, anti-hFc-AF647 detection
Procedure: (§1) To evaluate the binding activity of anti-PVRIG antibodies to native Cyno PVRIG on living cells. HEK293 cells were engineered to express Cyno PVRIG. HEK293 expressing PVRIG cells were seeded in 96 well plates and were incubated with a serial dilution of anti-PVRIG antibodies. […] EC50 values for dose dependent binding to Cyno native PVRIG were determined by fitting the dose response data to the four-parameter logistic model with GraphPad Prism™.

[4] = biological target: T4, human PVRIG expressed on cells; experiment: flow cytometry on Jurkat cells expressing human PVRIG, anti-hFc-AF647 detection
Procedure: To evaluate the binding activity of anti-PVRIG antibodies to native PVRIG on living cells, Jurkat cells were engineered to express human PVRIG. […] EC50 values for dose dependent binding to human native PVRIG were determined by fitting the dose response data to the four-parameter logistic model with GraphPad Prism™.

[5] = biological target: T2, hPVRIG-ECD-his; experiment: blocking ELISA: hPVRIG-His coated, antibody mixed with PVRL2-biotin at 1 ug/mL; % inhibition of PVRL2 binding [panel A]
[6] = biological target: T4, human PVRIG expressed on cells; experiment: flow cytometry on Jurkat cells expressing human PVRIG, anti-hFc-AF647 detection [panel A]
Procedure: as §1, with “native” for “native Cyno”, “cells, Jurkat” for “cells. HEK293”, “human” for “Cyno”, “Jurkat cells” for “HEK293”, “PVRIG” for “PVRIG cells”, “serially diluted” for “a serial dilution of”

[7] = biological target: T1, human PVRIG recombinant protein; experiment: SPR, antibody captured via anti-human Fc, human PVRIG analyte; remark: listed apart in the source
Excerpt: For affinity determination, anti-PVRIG antibodies were captured by anti-human Fc antibodies, and used in the affinity assay based on surface plasmon resonance (SPR) technology.

[8] = biological target: T4, human PVRIG expressed on cells; experiment: flow cytometry on Jurkat cells expressing human PVRIG, anti-hFc-647 detection [panel B]
Procedure: as §1, with “native” for “native Cyno”, “cells, Jurkat” for “cells. HEK293”, “human” for “Cyno”, “Jurkat cells” for “HEK293”, “PVRIG” for “PVRIG cells”, “serially diluted” for “a serial dilution of”

[9] = biological target: T3, Cyno PVRIG expressed on HEK293 cells; experiment: flow cytometry on HEK293 cells expressing cyno PVRIG, anti-hFc-647 detection [panel B]
Procedure: as §1, with “cells transfected with Cyno” for “expressing”, “PVRIG” for “PVRIG cells”

[10] = biological target: T3, Cyno PVRIG expressed on HEK293 cells; experiment: flow cytometry on 293T cells expressing cyno PVRIG, anti-hFc-AF647 detection [panel A]
Procedure: as §1, with “cells transfected with Cyno” for “expressing”, “PVRIG” for “PVRIG cells”

[11] = biological target: T5, human PVRL2 overexpressed on Farage …; experiment: flow cytometry: 300 ng/ml hPVRIG-mIgG2a on Farage-hPVRL2 cells, PE anti-mouse IgG2a [panel A]
[12] = biological target: T1, human PVRIG recombinant protein; experiment: SPR, antibody captured via anti-human Fc, human PVRIG analyte; remark: listed apart in the source
Procedure: Chimeric anti-PVRIG antibodies were generated in human IgG1 format and characterized for binding kinetics by surface plasmon resonance (SPR) assays using BIAcore™ T-200 (GE Life Sciences). […] Then a serial dilution of human or Cyno PVRIG protein was flowed over the chip surface and changes in surface plasmon resonance signals were analyzed to calculate the association rates (kₒₙ) and dissociation rates (koff) by using the one-to-one Langmuir binding model (BIA Evaluation Software, GE Life Sciences). The equilibrium dissociation constant (KD) was calculated as the ratio koff/kₒₙ.

[13] = biological target: T4, human PVRIG expressed on cells; experiment: FACS on human PVRIG-expressing cells
[14] = biological target: T1, human PVRIG recombinant protein; experiment: ELISA, chimeric antibody on recombinant human PVRIG
[15] = biological target: T2, hPVRIG-ECD-his; experiment: competition ELISA, antibody against PVRL2 on coated human PVRIG

Row | Binder | Kd [1] | koff [1] | kon [1] | IC50 (read off the curve) [2] | EC50 (read off the curve) [3] | EC50 (read off the curve) [4] | IC50 (read off the curve) [5] | EC50 (read off the curve) [6] | Kd [7] | koff [7] | kon [7] | EC50 (read off the curve) [10] | Kd [12] | koff [12] | kon [12] | EC50 [13] | binding Emax (MFI) [13] | EC50 [14] | IC50 [15] | PVRIG/PVRL2 blocking Emax (% Inhibition) [15] | other results
1 | BGA861 (antibody, V domains shown, Humanized BGA86) VH: EVQLVESGGGLVKPGGSLRLSCAASGFTFSSYGISWVRQAPGKGLEWVSEISSGGTYTYYPDTVTGRFTISRDNAKNTLYLQMSSLRAEDTAVYYCARGDPFGYWGQGTLVTVSS VL: DIQMTQSPSSLSASVGDRVTITCKASQDVMTAVAWYQQKPGKAPKLLIYSTSYRFTGVPSRFSGSGSGTDFTLTISSLQPEDFATYYCQQHYSTPRTFGGGTKVEIK | 645 pM | 0.000954 s⁻¹ | 1.48e+06 M⁻¹ s⁻¹ | ~0.2 µg/mL | ~0.04 µg/mL | ~0.02 µg/mL | – | – | – | – | – | – | – | – | – | – | – | – | – | – | –
2 | human PVRIG-mIgG2a (Fc fusion, also called hPVRIG-mIgG2a; hPVRIG; not shown: mouse IgG2a Fc) TPEVWVQVRMEATELSSFTIRCGFLGSGSISLVTVSWGGPNGAGGTTLAVLHPERGIRQWAPARQARWETQSSISLILEGSGASSPCANTTFCCKFASFPEGSWEACGSLPPSSDPGLSAPPTPAPILRAD | – | – | – | – | – | – | – | – | – | – | – | – | – | – | – | – | – | – | – | – | binding result [11]: binds
3 | BGA86 (antibody, human IgG1, V domains shown, also called BGA86-WT) VH: EVQLQESGGGSVKPGGSLQLSCAASGFTFSSYGMSWIRQSPEKKLEWVAEISSGGTYTYYPDTVTGRFTISRDNAKNTLYLEMSSLRSEDTAMYYCARGDPFGYWGQGTLVTVSA VL: DVVMTQSHKFVSTSVGGRVSITCKASQDVMTAVAWYQQKPGQSPKLLIYSTSYRFTGVPDRFTGSGSGTDFTLTINGVQAEDLAVYSCQQHYSTPRTFGGGTKLEIK | 304 pM | 0.000772 s⁻¹ | 2.54e+06 M⁻¹ s⁻¹ | ~0.1 µg/mL | ~0.01 µg/mL | ~0.02 µg/mL | – | – | – | – | – | – | 161 pM | 0.00215 s⁻¹ | 1.34e+07 M⁻¹ s⁻¹ | 38 pM | 1030 MFI | 69 pM | 885 pM | 97.2% | –
4 | BGA38 (antibody, V domains shown, also called BGA38-WT) VH: EVQLQESGAEHVMPGASVKMSCKAAGYTFTDYWMYWVKQRPGQGLEWIGTIDTSDHKTSYNQKFRGKATLTVDESSSTAYMQLSSLTSEDSAVYYCARDFIITVNYPVVDYWGQGTSVTVSS VL: QNVLTQSPAIMSASPGEKVTITCSAGSSVNYMHWFQQKPGTSPKLWIYSTSNLASGVPARFSGSGSGTSYSLTISRMEAEDAATYYCQQRSSLPFTFGSGTKLEIK | – | – | – | – | – | – | ~0.6 µg/mL | ~0.03 µg/mL | 45 pM | 0.000175 s⁻¹ | 3.89e+06 M⁻¹ s⁻¹ | ~0.05 µg/mL | 112 pM | 0.00017 s⁻¹ | 1.52e+06 M⁻¹ s⁻¹ | 59 pM | 1040 MFI | 524 pM | 1500 pM | 60% | –

More lines, main results first:

Row | Kd [1] | koff [1] | kon [1] | IC50 (read off the curve) [2] | EC50 (read off the curve) [3] | EC50 (read off the curve) [4] | IC50 (read off the curve) [5] | EC50 (read off the curve) [6] | Kd [7] | koff [7] | kon [7] | EC50 (read off the curve) [10] | Kd [12] | koff [12] | kon [12] | EC50 [13] | binding Emax (MFI) [13] | EC50 [14] | IC50 [15] | PVRIG/PVRL2 blocking Emax (% Inhibition) [15] | Binder | other results
5 | 898 pM | 0.00216 s⁻¹ | 2.41e+06 M⁻¹ s⁻¹ | ~0.1 µg/mL | ~0.01 µg/mL | ~0.01 µg/mL | – | – | – | – | – | – | – | – | – | – | – | – | – | – | BGA862 (antibody, V domains shown, Humanized BGA86) VH: EVQLVESGGGLVKPGGSLRLSCAASGFTFSSYGLSWVRQAPGKGLEWVSEISSGGTYTYYPDTVTGRFTISRDNAKNTLYLQMSSLRAEDTAVYYCARGDPFGYWGQGTLVTVSS VL: DIQMTQSPSSLSASVGDRVTITCKASQDVMTAVAWYQQKPGKAPKLLIYSTSYRFTGVPSRFSGSGSGTDFTLTISSLQPEDFATYYCQQHYSTPRTFGGGTKVEIK | –
6 | – | – | – | – | – | – | ~0.4 µg/mL | ~0.03 µg/mL | 70.7 pM | 0.000311 s⁻¹ | 4.4e+06 M⁻¹ s⁻¹ | ~0.06 µg/mL | – | – | – | – | – | – | – | – | BGA381 (antibody, V domains shown, Humanized BGA38; also called BGA381-WT; BGA381/IgG1 WT) VH: EVQLVQSGAEVKKPGASVKVSCKASGYTFTDYWIYWVRQAPGQGLEWMGTIDTSDHKTSYNQKFRGRVTMTRDTSTSTVYMELSSLRSEDTAVYYCARDFIITVNYPVVDYWGQGTLVTVSS VL: QIVLTQSPATLSLSPGERATLSCSAGSSVNYMHWFQQKPGQAPRLLIYSTSNLASGVPARFSGSGSGTDYTLTISSLEPEDFAVYYCQQRSSLPFTFGQGTKLEIK | EC50 (read off the curve) [8]: ~0.03 µg/mL; EC50 (read off the curve) [9]: ~0.06 µg/mL
